Test results: patent US20180273587A1 (AILERON THERAPEUTICS, published 2018)
Positions of bridges follow the written chain, without caps; N, C: chain ends. Non-standard residues stand in square brackets, D forms with d. R8 = C=CCCCCCC[C@@](C)(N)C(=O)O; S5 = C=CCCC[C@](C)(N)C(=O)O

B1: SEQ ID NO: 1651 (peptide)
peptide: Ac-IWIAAALR[R8]IGDEFN[S5]YYA-NH2
modifications: staple 9-16
SMILES: CC[C@H](C)[C@H](NC(C)=O)C(=O)N[C@@H](Cc1c[nH]c2ccccc12)C(=O)N[C@H](C(=O)N[C@@H](C)C(=O)N[C@@H](C)C(=O)N[C@@H](C)C(=O)N[C@@H](CC(C)C)C(=O)N[C@@H](CCCNC(=N)N)C(=O)N[C@]1(C)CCCCCCC=CCCC[C@@](C)(C(=O)N[C@@H](Cc2ccc(O)cc2)C(=O)N[C@@H](Cc2ccc(O)cc2)C(=O)N[C@@H](C)C(N)=O)NC(=O)[C@H](CC(N)=O)NC(=O)[C@H](Cc2ccccc2)NC(=O)[C@H](CCC(=O)O)NC(=O)[C@H](CC(=O)O)NC(=O)CNC(=O)[C@H]([C@@H](C)CC)NC1=O)[C@@H](C)CC
B2: SEQ ID NO: 1652 (peptide)
peptide: Ac-IWIAAALR[R8]IGDQFN[S5]YYA-NH2
modifications: staple 9-16
SMILES: CC[C@H](C)[C@H](NC(C)=O)C(=O)N[C@@H](Cc1c[nH]c2ccccc12)C(=O)N[C@H](C(=O)N[C@@H](C)C(=O)N[C@@H](C)C(=O)N[C@@H](C)C(=O)N[C@@H](CC(C)C)C(=O)N[C@@H](CCCNC(=N)N)C(=O)N[C@]1(C)CCCCCCC=CCCC[C@@](C)(C(=O)N[C@@H](Cc2ccc(O)cc2)C(=O)N[C@@H](Cc2ccc(O)cc2)C(=O)N[C@@H](C)C(N)=O)NC(=O)[C@H](CC(N)=O)NC(=O)[C@H](Cc2ccccc2)NC(=O)[C@H](CCC(N)=O)NC(=O)[C@H](CC(=O)O)NC(=O)CNC(=O)[C@H]([C@@H](C)CC)NC1=O)[C@@H](C)CC
B3: SEQ ID NO: 1653 (peptide)
peptide: Ac-IWIAAALR[R8]IGDAFN[S5]YYA-NH2
modifications: staple 9-16
SMILES: CC[C@H](C)[C@H](NC(C)=O)C(=O)N[C@@H](Cc1c[nH]c2ccccc12)C(=O)N[C@H](C(=O)N[C@@H](C)C(=O)N[C@@H](C)C(=O)N[C@@H](C)C(=O)N[C@@H](CC(C)C)C(=O)N[C@@H](CCCNC(=N)N)C(=O)N[C@]1(C)CCCCCCC=CCCC[C@@](C)(C(=O)N[C@@H](Cc2ccc(O)cc2)C(=O)N[C@@H](Cc2ccc(O)cc2)C(=O)N[C@@H](C)C(N)=O)NC(=O)[C@H](CC(N)=O)NC(=O)[C@H](Cc2ccccc2)NC(=O)[C@H](C)NC(=O)[C@H](CC(=O)O)NC(=O)CNC(=O)[C@H]([C@@H](C)CC)NC1=O)[C@@H](C)CC
B4: SEQ ID NO: 1654 (peptide)
peptide: Ac-IWIAQALR[R8]IGDAFA[S5]YYA-NH2
modifications: staple 9-16
SMILES: CC[C@H](C)[C@H](NC(C)=O)C(=O)N[C@@H](Cc1c[nH]c2ccccc12)C(=O)N[C@H](C(=O)N[C@@H](C)C(=O)N[C@@H](CCC(N)=O)C(=O)N[C@@H](C)C(=O)N[C@@H](CC(C)C)C(=O)N[C@@H](CCCNC(=N)N)C(=O)N[C@]1(C)CCCCCCC=CCCC[C@@](C)(C(=O)N[C@@H](Cc2ccc(O)cc2)C(=O)N[C@@H](Cc2ccc(O)cc2)C(=O)N[C@@H](C)C(N)=O)NC(=O)[C@H](C)NC(=O)[C@H](Cc2ccccc2)NC(=O)[C@H](C)NC(=O)[C@H](CC(=O)O)NC(=O)CNC(=O)[C@H]([C@@H](C)CC)NC1=O)[C@@H](C)CC
B5: SEQ ID NO: 1659 (peptide)
peptide: Ac-IWIAQALQ[R8]IGDAFN[S5]YYA-NH2
modifications: staple 9-16
SMILES: CC[C@H](C)[C@H](NC(C)=O)C(=O)N[C@@H](Cc1c[nH]c2ccccc12)C(=O)N[C@H](C(=O)N[C@@H](C)C(=O)N[C@@H](CCC(N)=O)C(=O)N[C@@H](C)C(=O)N[C@@H](CC(C)C)C(=O)N[C@@H](CCC(N)=O)C(=O)N[C@]1(C)CCCCCCC=CCCC[C@@](C)(C(=O)N[C@@H](Cc2ccc(O)cc2)C(=O)N[C@@H](Cc2ccc(O)cc2)C(=O)N[C@@H](C)C(N)=O)NC(=O)[C@H](CC(N)=O)NC(=O)[C@H](Cc2ccccc2)NC(=O)[C@H](C)NC(=O)[C@H](CC(=O)O)NC(=O)CNC(=O)[C@H]([C@@H](C)CC)NC1=O)[C@@H](C)CC
B6: SEQ ID NO: 1660 (peptide)
peptide: Ac-IWIAQALQ[R8]IGDQFN[S5]YYA-NH2
modifications: staple 9-16
SMILES: CC[C@H](C)[C@H](NC(C)=O)C(=O)N[C@@H](Cc1c[nH]c2ccccc12)C(=O)N[C@H](C(=O)N[C@@H](C)C(=O)N[C@@H](CCC(N)=O)C(=O)N[C@@H](C)C(=O)N[C@@H](CC(C)C)C(=O)N[C@@H](CCC(N)=O)C(=O)N[C@]1(C)CCCCCCC=CCCC[C@@](C)(C(=O)N[C@@H](Cc2ccc(O)cc2)C(=O)N[C@@H](Cc2ccc(O)cc2)C(=O)N[C@@H](C)C(N)=O)NC(=O)[C@H](CC(N)=O)NC(=O)[C@H](Cc2ccccc2)NC(=O)[C@H](CCC(N)=O)NC(=O)[C@H](CC(=O)O)NC(=O)CNC(=O)[C@H]([C@@H](C)CC)NC1=O)[C@@H](C)CC
B7: SEQ ID NO: 1661 (peptide)
peptide: Ac-IWIAQALR[R8]IGDAAN[S5]YYA-NH2
modifications: staple 9-16
SMILES: CC[C@H](C)[C@H](NC(C)=O)C(=O)N[C@@H](Cc1c[nH]c2ccccc12)C(=O)N[C@H](C(=O)N[C@@H](C)C(=O)N[C@@H](CCC(N)=O)C(=O)N[C@@H](C)C(=O)N[C@@H](CC(C)C)C(=O)N[C@@H](CCCNC(=N)N)C(=O)N[C@]1(C)CCCCCCC=CCCC[C@@](C)(C(=O)N[C@@H](Cc2ccc(O)cc2)C(=O)N[C@@H](Cc2ccc(O)cc2)C(=O)N[C@@H](C)C(N)=O)NC(=O)[C@H](CC(N)=O)NC(=O)[C@H](C)NC(=O)[C@H](C)NC(=O)[C@H](CC(=O)O)NC(=O)CNC(=O)[C@H]([C@@H](C)CC)NC1=O)[C@@H](C)CC
B8: SEQ ID NO: 1662 (peptide)
peptide: Ac-IWIAQALR[R8]IGDAIN[S5]YYA-NH2
modifications: staple 9-16
SMILES: CC[C@H](C)[C@H](NC(C)=O)C(=O)N[C@@H](Cc1c[nH]c2ccccc12)C(=O)N[C@H](C(=O)N[C@@H](C)C(=O)N[C@@H](CCC(N)=O)C(=O)N[C@@H](C)C(=O)N[C@@H](CC(C)C)C(=O)N[C@@H](CCCNC(=N)N)C(=O)N[C@]1(C)CCCCCCC=CCCC[C@@](C)(C(=O)N[C@@H](Cc2ccc(O)cc2)C(=O)N[C@@H](Cc2ccc(O)cc2)C(=O)N[C@@H](C)C(N)=O)NC(=O)[C@H](CC(N)=O)NC(=O)[C@H]([C@@H](C)CC)NC(=O)[C@H](C)NC(=O)[C@H](CC(=O)O)NC(=O)CNC(=O)[C@H]([C@@H](C)CC)NC1=O)[C@@H](C)CC
B9: SEQ ID NO: 1664 (peptide)
peptide: Ac-IWIAQAAR[R8]IGDAAN[S5]YYA-NH2
modifications: staple 9-16
SMILES: CC[C@H](C)[C@H](NC(C)=O)C(=O)N[C@@H](Cc1c[nH]c2ccccc12)C(=O)N[C@H](C(=O)N[C@@H](C)C(=O)N[C@@H](CCC(N)=O)C(=O)N[C@@H](C)C(=O)N[C@@H](C)C(=O)N[C@@H](CCCNC(=N)N)C(=O)N[C@]1(C)CCCCCCC=CCCC[C@@](C)(C(=O)N[C@@H](Cc2ccc(O)cc2)C(=O)N[C@@H](Cc2ccc(O)cc2)C(=O)N[C@@H](C)C(N)=O)NC(=O)[C@H](CC(N)=O)NC(=O)[C@H](C)NC(=O)[C@H](C)NC(=O)[C@H](CC(=O)O)NC(=O)CNC(=O)[C@H]([C@@H](C)CC)NC1=O)[C@@H](C)CC
B10: SEQ ID NO: 1665 (peptide)
peptide: Ac-IWIAQALR[R8]IADAFN[S5]YYA-NH2
modifications: staple 9-16
SMILES: CC[C@H](C)[C@H](NC(C)=O)C(=O)N[C@@H](Cc1c[nH]c2ccccc12)C(=O)N[C@H](C(=O)N[C@@H](C)C(=O)N[C@@H](CCC(N)=O)C(=O)N[C@@H](C)C(=O)N[C@@H](CC(C)C)C(=O)N[C@@H](CCCNC(=N)N)C(=O)N[C@]1(C)CCCCCCC=CCCC[C@@](C)(C(=O)N[C@@H](Cc2ccc(O)cc2)C(=O)N[C@@H](Cc2ccc(O)cc2)C(=O)N[C@@H](C)C(N)=O)NC(=O)[C@H](CC(N)=O)NC(=O)[C@H](Cc2ccccc2)NC(=O)[C@H](C)NC(=O)[C@H](CC(=O)O)NC(=O)[C@H](C)NC(=O)[C@H]([C@@H](C)CC)NC1=O)[C@@H](C)CC
B11: SEQ ID NO: 1666 (peptide)
peptide: Ac-IWIAQALR[R8]IADQFN[S5]YYA-NH2
modifications: staple 9-16
SMILES: CC[C@H](C)[C@H](NC(C)=O)C(=O)N[C@@H](Cc1c[nH]c2ccccc12)C(=O)N[C@H](C(=O)N[C@@H](C)C(=O)N[C@@H](CCC(N)=O)C(=O)N[C@@H](C)C(=O)N[C@@H](CC(C)C)C(=O)N[C@@H](CCCNC(=N)N)C(=O)N[C@]1(C)CCCCCCC=CCCC[C@@](C)(C(=O)N[C@@H](Cc2ccc(O)cc2)C(=O)N[C@@H](Cc2ccc(O)cc2)C(=O)N[C@@H](C)C(N)=O)NC(=O)[C@H](CC(N)=O)NC(=O)[C@H](Cc2ccccc2)NC(=O)[C@H](CCC(N)=O)NC(=O)[C@H](CC(=O)O)NC(=O)[C@H](C)NC(=O)[C@H]([C@@H](C)CC)NC1=O)[C@@H](C)CC
B12: SEQ ID NO: 1667 (peptide)
peptide: Ac-IWIAQALR[R8]AGDAFN[S5]YYA-NH2
modifications: staple 9-16
SMILES: CC[C@H](C)[C@H](NC(C)=O)C(=O)N[C@@H](Cc1c[nH]c2ccccc12)C(=O)N[C@H](C(=O)N[C@@H](C)C(=O)N[C@@H](CCC(N)=O)C(=O)N[C@@H](C)C(=O)N[C@@H](CC(C)C)C(=O)N[C@@H](CCCNC(=N)N)C(=O)N[C@]1(C)CCCCCCC=CCCC[C@@](C)(C(=O)N[C@@H](Cc2ccc(O)cc2)C(=O)N[C@@H](Cc2ccc(O)cc2)C(=O)N[C@@H](C)C(N)=O)NC(=O)[C@H](CC(N)=O)NC(=O)[C@H](Cc2ccccc2)NC(=O)[C@H](C)NC(=O)[C@H](CC(=O)O)NC(=O)CNC(=O)[C@H](C)NC1=O)[C@@H](C)CC

Each binder was assayed against T1, MCL-1 (UniProt Q07820 172-327, limits assumed) (assay: Ki table, method not stated).
T1 construct: also called Myeloid cell leukemia 1
T1 sequence (Q07820 172-327 limits assumed): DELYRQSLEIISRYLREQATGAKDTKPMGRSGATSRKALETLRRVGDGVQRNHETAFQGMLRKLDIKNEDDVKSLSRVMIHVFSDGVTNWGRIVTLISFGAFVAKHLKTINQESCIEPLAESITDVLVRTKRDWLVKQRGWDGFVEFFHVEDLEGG

Binder | Ki
B1 | 1 nM
B2 | 6 nM
B3 | 6.7 nM
B4 | 7.4 nM
B5 | 76.2 nM
B6 | 14.8 nM
B7 | 7.5 nM
B8 | 3.4 nM
B9 | 177 nM
B10 | 96.3 nM
B11 | 116 nM
B12 | 183 nM

The binders below were run against BCL-2 (UniProt P10415 1-217, limits assumed) (assay: Ki table, method not stated).
Sequence of BCL-2 (P10415 1-217 limits assumed): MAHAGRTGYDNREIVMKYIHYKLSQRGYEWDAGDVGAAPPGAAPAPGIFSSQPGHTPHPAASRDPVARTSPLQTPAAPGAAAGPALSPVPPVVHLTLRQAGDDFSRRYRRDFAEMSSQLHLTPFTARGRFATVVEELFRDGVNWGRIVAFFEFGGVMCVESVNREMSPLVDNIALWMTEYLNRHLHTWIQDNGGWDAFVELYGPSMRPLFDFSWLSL

Binder | Ki
B1 | 6 nM
B2 | 22 nM
B3 | 65.4 nM
B4 | 115 nM
B5 | 365 nM
B6 | 27.5 nM
B7 | 140 nM
B8 | 113 nM
B9 | 502 nM
B10 | 84 nM
B11 | 25.6 nM
B12 | 59.6 nM

The binders below were run against BCL-XL (UniProt Q07817 1-209) (assay: Ki table, method not stated).
Sequence of BCL-XL (Q07817 1-209): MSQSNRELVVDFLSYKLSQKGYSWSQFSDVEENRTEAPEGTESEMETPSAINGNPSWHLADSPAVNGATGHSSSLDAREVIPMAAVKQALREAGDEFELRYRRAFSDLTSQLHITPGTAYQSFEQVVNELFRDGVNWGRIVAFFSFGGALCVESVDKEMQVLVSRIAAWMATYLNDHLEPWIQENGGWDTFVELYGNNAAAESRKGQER

Binder | Ki
B1 | 1 nM
B2 | 4 nM
B3 | 25.6 nM
B4 | 55.7 nM
B5 | 325 nM
B6 | 6.3 nM
B7 | 402 nM
B8 | 14.1 nM
B9 | 154 nM
B10 | 7.7 nM
B11 | 7.7 nM
B12 | 18.1 nM
